Laboratory results: patent US6414113B1, “Peptides binding to bone marrow stromal cell antigen” (Biomolecular Engineering Research Institute, priority 1998, dated 2002)
Where no end group is shown, it is not given here. The star is where a group is joined. Biotin = O=C1N[C@H]2[C@H](CS[C@H]2CCCCC(=O)*)N1

T1: BST-1 (Homo sapiens, UniProt Q10588)
T1 construct: made in house; host or cells: baculovirus (pVL1393); virus made in Sf9, protein expressed in High five insect cells
T1 sequence (Q10588 33-297): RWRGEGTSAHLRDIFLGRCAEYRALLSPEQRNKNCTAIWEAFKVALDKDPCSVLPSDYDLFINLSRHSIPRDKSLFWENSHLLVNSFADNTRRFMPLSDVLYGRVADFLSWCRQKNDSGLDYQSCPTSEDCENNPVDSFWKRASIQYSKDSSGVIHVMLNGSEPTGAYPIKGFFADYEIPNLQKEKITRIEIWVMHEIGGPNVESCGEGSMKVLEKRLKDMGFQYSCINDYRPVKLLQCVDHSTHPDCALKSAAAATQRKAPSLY

T2: soluble human bone marrow stromal cell antigen-1 (BST-1) (human, UniProt Q10588 33-297)
T2 construct: range 1-297; Expressed with baculovirus in High five insect cells, purified to 95% or more; The construct encodes codons 1-297; also called purified BST-1; soluble BST-1
T2 sequence (looked up): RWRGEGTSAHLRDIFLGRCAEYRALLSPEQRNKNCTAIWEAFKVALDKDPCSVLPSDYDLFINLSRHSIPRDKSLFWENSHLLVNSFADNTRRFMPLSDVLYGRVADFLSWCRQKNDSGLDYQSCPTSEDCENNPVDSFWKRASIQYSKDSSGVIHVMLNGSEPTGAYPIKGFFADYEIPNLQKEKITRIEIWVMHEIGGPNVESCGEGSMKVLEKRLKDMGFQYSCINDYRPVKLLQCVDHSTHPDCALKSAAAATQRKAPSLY


What was measured:
BST-1 = molecular target: T1, BST-1; test: Inhibition of ADP-ribosyl cyclase activity of BST-1 (NGD method); assay type: biochemical; settings: DTT 10 mM
Description: The fact that the peptide thus obtained inhibits ADP-ribosyl cyclase activity of BST-1 may be identified by comparing the ADP-ribosyl cyclase activity when measured in the absence of the peptide with the activity in the presence of the peptide. As previously mentioned, NAD is converted to cADP-ribose by ADP-ribosyl cyclase activity of BST-1, and therefore, the activity may be measured by allowing to react NAD with BST-1 and then quantitatively determining NAD and cADP-ribose after separation of them by anion-exchange chromatography (FEBS letters, 356, 244, 1994). Alternatively, nicotinamide guanine dinucleotide (NGD) may be used as a substrate instead of NAD, which is converted to cyclic guanosine-5′-diphosphate-ribose cGDP-ribose that can be fluorimetrically measured with an excitation wavelength of 300 nm and an emission wavelength of 410 nm, whereby the velocity of the formation of cGDP-ribose reflects ADP-ribosyl cyclase activity (J. Biol. Chem., […], 30260, 1994).
The abscissa is time course and the ordinate is fluorescence intensity. Purified BST-1 (4 μg/ml) was mixed with NGD (300 μM), and the mixture was allowed to react at 25° C. for 300 seconds, and then the synthetic peptide SNP-1 was added thereto at the concentration of 20 μM.
Inhibition of ADP-ribosyl cyclase activity of BST-1 by synthetic peptides was tested by means of the NGD method previously mentioned. […]

[1] = molecular target: T2, soluble human bone marrow stromal cell …; test: Biacore SPR, BST-1 amine-coupled on CM5, equilibrium values at 400-2000 nM peptide, Scatchard plot
Experimental: BST-1 was immobilized at 2800 resonance unit (RU) on the sensor chip CM5 of a bio-sensor for analyzing protein interactions, BIACORE (Biacore K.K.), by means of an amine coupling method. The synthetic peptides were passed through the sensor chip at the flow rate of 40 µl/min at the concentration of from 400 nM to 2000 nM. Equilibrium binding value was obtained for each concentration. Based on the equilibrium binding values, dissociation constants were calculated by means of Scatchard plot method (Hulme E. C.; Receptor-binding studies, a brief outline, in Receptor Biochemistry: A Practical Approach, 303–315, IRL press, 1990).

bovine serum albumin = molecular target: T3, bovine serum albumin (bovine, UniProt P02769 25-607); test: phage ELISA, well coated with BSA alone
T3 construct: also called BSA
T3 sequence (P02769 25-607 limits assumed): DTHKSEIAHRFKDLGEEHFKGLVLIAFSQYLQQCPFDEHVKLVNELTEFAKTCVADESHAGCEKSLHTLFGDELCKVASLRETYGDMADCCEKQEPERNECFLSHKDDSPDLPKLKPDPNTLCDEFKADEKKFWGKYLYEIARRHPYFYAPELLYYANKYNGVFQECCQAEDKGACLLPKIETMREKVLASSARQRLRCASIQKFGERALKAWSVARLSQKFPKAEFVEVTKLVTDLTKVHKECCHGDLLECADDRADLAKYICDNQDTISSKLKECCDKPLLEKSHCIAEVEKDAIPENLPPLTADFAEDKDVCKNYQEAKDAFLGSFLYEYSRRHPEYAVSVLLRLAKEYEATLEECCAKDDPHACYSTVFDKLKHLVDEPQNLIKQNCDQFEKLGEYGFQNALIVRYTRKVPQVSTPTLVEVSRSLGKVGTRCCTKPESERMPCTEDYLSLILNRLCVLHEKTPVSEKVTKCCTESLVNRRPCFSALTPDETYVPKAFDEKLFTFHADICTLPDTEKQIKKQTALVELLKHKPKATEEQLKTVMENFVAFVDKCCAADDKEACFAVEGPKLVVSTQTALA

Row | Molecule | Kd [1] [nM] | binding result (bovine serum albumin) | further results
1 | O[C@@H](CS)[C@@H](O)CS [DTT] |  |  | ADP-ribosyl cyclase activity of BST-1 after addition of reducing agent (BST-1): complete disappearance
2 | {Sulfo‑NHS‑LC‑Biotin}-HSQISGKYQRYLKDA [bSNP-1 (SNP-1 biotinylated at the N-terminal)] | 530 |  | 
3 | HSQISGKYQRYLKDA (not shown: phage coat protein of the Fuse 5 vector to which the peptide is fused; not specified) [phage SN-1 (phage expressing the peptide defined by SEQ ID NO: 1)] |  | no binding | 
4 | HSQISGKYQRYLKDAK(Biotin) [SNPb-1 (SNP-1 with an additional C-terminal Lys carrying biotin)] | 810 |  | 
5 | DDVVYTNIHKWGRRE (not shown: phage coat protein of the Fuse 5 vector to which the peptide is fused; not specified) [phage SN-16 (phage expressing the peptide defined by SEQ ID NO: 2)] |  | no binding | 
6 | HSQISGKYQRYLKDA (15-residue synthetic peptide, purity 95% or more; also called prototype SNP-1; original SNP-1) [synthetic peptide SNP-1] | 510 |  | 
